B1: PD-L2 extracellular domain (ligand, human, UniProt Q9BQ51 20-220, looked up)
chain: LFTVTVPKELYIIEHGSNVTLECNFDTGSHVNLGAITASLQKVENDTSPHRERATLLEEQLPLGKASFHIPQVQVRDEGQYQCIIIYGVAWDYKYLTLKVKASYRKINTHILKVPETDEVELTCQATGYPLAEVSWPNVSVPANTSHSRTPEGLYQVTSVLRLKPPPGRNFSCVFWNTHVRELTLASIDLQSQMEPRTHPT
notes: extracellular domain; ECD construct; also called PDCD1LG2; programmed cell death 1 ligand 2
B2: CEACAM4 extracellular domain (receptor, human, UniProt O75871 36-155, looked up)
chain: FTIEALPSSAAEGKDVLLLACNISETIQAYYWHKGKTAEGSPLIAGYITDIQANIPGAAYSGRETVYPNGSLLFQNITLEDAGSYTLRTINASYDSDQATGQLHVHQNNVPGLPVGAVAG
notes: extracellular domain; ECD construct
B3: CEACAM4 expressed on cells (receptor, human, UniProt O75871 36-244, looked up)
chain: FTIEALPSSAAEGKDVLLLACNISETIQAYYWHKGKTAEGSPLIAGYITDIQANIPGAAYSGRETVYPNGSLLFQNITLEDAGSYTLRTINASYDSDQATGQLHVHQNNVPGLPVGAVAGIVTGVLVGVALVAALVCFLLLSRTGRASIQRDLREQPPPASTPGHGPSHRSTFSAPLPSPRTATPIYEELLYSDANIYCQIDHKADVVS
notes: whole, on cells
B4: mouse PDPN (receptor, UniProt Q62011 23-141, looked up)
chain: GTIGVNEDDIVTPGTGDGMVPPGIEDKITTTGATGGLNESTGKAPLVPTQRERGTKPPLEELSTSATSDHDHREHESTTTVKVVTSHSVDKKTSHPNRDNAGDETQTTDKKDGLPVVTL

Columns and labels:
[1] = molecular target: T1, CEACAM5 expressed on cells (human, UniProt P06731 35-685); experiment: cell surface interaction assay: PD-L2 ECD tetramer on transfected cells (FIG. 4F)
T1 construct: whole, on cells
T1 sequence (looked up): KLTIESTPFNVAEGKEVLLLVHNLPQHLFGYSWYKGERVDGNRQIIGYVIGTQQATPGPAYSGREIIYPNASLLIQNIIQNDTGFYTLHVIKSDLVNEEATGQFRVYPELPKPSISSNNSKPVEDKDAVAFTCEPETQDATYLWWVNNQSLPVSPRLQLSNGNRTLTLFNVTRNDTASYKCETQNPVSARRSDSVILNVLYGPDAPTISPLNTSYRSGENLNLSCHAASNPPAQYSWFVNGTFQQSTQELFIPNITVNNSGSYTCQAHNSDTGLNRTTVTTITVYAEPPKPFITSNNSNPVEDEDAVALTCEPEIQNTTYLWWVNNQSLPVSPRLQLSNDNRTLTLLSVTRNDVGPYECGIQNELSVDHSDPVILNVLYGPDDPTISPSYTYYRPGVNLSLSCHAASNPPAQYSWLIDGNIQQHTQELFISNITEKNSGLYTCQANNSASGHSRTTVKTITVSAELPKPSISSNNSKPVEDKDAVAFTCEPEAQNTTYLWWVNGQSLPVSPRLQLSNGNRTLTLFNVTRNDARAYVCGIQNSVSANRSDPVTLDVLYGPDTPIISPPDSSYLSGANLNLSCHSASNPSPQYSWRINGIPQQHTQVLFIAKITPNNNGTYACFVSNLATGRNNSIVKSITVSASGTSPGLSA

[2] = molecular target: B3; experiment: as above
EPHA3 expressed on cells = molecular target: T2, EPHA3 expressed on cells (human, UniProt P29320 21-983); experiment: as above
T2 construct: whole, on cells; also called ephrin type-A receptor 3
T2 sequence (looked up): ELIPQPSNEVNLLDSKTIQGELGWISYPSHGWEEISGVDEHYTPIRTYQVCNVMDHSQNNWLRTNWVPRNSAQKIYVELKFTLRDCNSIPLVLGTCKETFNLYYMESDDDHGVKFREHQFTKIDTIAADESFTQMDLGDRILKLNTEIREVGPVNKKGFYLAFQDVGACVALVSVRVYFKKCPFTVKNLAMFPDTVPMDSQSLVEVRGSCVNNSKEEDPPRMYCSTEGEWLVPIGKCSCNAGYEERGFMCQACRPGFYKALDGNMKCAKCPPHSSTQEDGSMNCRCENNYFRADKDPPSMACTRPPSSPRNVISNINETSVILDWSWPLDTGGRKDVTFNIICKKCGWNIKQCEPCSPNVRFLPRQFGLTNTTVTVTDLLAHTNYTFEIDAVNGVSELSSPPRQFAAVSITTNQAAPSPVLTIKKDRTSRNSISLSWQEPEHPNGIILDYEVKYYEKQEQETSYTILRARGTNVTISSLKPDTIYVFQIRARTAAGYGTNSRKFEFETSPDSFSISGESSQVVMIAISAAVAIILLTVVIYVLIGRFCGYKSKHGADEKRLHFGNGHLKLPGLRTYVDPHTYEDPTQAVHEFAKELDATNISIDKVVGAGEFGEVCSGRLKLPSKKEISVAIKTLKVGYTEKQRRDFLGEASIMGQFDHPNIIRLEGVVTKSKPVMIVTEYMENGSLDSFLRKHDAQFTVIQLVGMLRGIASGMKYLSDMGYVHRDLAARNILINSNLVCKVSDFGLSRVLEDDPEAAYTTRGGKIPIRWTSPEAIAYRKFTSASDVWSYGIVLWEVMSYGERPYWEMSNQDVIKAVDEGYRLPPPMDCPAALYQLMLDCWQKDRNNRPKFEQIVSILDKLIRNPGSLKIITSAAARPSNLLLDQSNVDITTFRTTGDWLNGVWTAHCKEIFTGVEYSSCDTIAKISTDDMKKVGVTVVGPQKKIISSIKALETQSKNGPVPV

PD-L1 expressed on cells = molecular target: T3, PD-L1 expressed on cells (human, UniProt Q9NZQ7 19-290); experiment: as above
T3 construct: whole, on cells; also called CD274

ICAM5 = molecular target: T4, ICAM5 (human, UniProt Q9UMF0); experiment: extracellular interaction screen, normalized intensity; labelled dot against the clone named on the axis; which is query and which prey is not given; colour of the predicted class lost
T4 construct: extracellular domain
T4 sequence (extracellular domain construct of the screen, looked up): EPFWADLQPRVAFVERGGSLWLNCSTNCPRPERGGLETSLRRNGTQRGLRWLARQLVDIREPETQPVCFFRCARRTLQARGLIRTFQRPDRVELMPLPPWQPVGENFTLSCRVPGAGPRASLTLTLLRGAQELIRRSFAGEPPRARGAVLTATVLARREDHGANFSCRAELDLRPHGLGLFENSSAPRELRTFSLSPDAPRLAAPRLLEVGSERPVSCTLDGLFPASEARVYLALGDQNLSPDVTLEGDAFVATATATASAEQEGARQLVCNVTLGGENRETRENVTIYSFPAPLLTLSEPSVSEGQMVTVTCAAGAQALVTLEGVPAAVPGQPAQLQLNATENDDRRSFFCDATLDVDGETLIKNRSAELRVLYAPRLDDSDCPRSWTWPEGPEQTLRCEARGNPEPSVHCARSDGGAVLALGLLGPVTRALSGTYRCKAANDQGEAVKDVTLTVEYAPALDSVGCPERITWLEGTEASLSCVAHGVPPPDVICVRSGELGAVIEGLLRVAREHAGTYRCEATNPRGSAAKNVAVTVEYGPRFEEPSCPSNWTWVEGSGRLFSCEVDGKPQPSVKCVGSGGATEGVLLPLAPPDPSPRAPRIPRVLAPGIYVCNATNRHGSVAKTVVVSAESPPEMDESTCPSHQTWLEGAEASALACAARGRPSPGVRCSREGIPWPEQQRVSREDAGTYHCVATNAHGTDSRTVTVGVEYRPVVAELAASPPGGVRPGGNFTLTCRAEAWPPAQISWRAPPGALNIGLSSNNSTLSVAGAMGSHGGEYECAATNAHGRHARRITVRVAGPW

[3] = molecular target: T5, EPHA3 extracellular domain (human, UniProt P29320 21-541); experiment: SPR, EPHA3 ECD-Fc immobilized, ECD-Fc analytes at 250 nM
T5 construct: extracellular domain; ECD construct; also called ephrin type-A receptor 3
T5 sequence (looked up): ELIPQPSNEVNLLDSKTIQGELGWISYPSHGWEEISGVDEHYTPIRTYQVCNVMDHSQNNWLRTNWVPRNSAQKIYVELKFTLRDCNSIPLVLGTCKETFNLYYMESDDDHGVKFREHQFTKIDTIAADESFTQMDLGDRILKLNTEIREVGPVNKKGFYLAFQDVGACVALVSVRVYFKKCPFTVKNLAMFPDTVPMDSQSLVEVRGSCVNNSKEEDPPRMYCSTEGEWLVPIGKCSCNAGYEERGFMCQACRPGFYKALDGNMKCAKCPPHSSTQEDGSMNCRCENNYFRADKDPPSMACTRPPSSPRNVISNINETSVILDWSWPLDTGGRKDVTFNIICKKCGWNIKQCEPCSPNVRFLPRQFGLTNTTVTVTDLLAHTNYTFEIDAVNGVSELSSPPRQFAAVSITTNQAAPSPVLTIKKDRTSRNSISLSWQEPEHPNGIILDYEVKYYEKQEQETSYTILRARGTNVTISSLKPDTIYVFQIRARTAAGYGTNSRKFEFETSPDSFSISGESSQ
From the text: (§1) An irrelevant Fc-tagged protein was used as a control. Sensorgram shown is representative of at least 3 independent runs.

[4] = molecular target: T6, PD-L1 extracellular domain (human, UniProt Q9NZQ7 19-238); experiment: SPR, CEACAM4 ECD-Fc immobilized, ECD-Fc analytes at 250 nM
T6 construct: extracellular domain; ECD construct; also called CD274; programmed cell death 1 ligand 1
From the text: as §1

[5] = molecular target: T7, PD-1 extracellular domain (human, UniProt Q15116 25-170); experiment: as above
T7 construct: extracellular domain; ECD construct; also called PDCD1; programmed cell death 1
From the text: as §1

[6] = molecular target: B1; experiment: SPR, calculated in equilibrium; PD-L2 immobilized, His-tagged CEACAM4 ECD as analyte (FIG. 10E)
[7] = molecular target: T6, PD-L1 extracellular domain; experiment: cell surface interaction assay: PD-L1 ECD tetramer on transfected cells (FIG. 4F)
mouse CD177 = molecular target: T8, mouse CD177 (mouse, UniProt Q8R2S8 22-796, limits assumed); experiment: SPR
T8 sequence (looked up): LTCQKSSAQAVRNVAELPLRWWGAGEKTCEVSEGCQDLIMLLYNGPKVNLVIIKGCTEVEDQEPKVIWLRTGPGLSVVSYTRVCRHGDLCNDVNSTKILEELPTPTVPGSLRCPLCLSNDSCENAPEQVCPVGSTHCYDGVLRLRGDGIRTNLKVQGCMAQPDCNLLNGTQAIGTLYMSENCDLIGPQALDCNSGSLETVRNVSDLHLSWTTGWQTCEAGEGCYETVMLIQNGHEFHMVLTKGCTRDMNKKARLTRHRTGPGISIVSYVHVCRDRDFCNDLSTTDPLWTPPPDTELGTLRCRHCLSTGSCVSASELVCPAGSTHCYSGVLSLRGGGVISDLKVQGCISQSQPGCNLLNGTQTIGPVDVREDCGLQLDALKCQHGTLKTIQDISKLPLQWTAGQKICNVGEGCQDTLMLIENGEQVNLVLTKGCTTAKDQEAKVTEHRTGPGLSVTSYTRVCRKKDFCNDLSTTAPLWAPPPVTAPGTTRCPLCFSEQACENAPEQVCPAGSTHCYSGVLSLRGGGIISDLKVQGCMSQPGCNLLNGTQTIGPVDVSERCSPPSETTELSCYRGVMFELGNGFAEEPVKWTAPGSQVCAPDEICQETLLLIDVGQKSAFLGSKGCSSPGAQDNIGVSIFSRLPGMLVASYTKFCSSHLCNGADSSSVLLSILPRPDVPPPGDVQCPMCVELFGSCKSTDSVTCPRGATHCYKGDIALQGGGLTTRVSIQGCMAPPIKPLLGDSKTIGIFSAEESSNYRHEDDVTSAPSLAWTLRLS

T6 sequence (Q9NZQ7 19-238): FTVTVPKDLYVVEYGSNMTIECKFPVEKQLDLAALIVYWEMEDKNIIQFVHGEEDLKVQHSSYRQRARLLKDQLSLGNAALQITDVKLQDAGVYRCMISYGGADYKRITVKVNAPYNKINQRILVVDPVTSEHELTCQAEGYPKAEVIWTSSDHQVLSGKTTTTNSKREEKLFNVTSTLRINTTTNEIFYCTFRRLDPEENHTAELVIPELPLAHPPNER
T7 sequence (Q15116 25-170): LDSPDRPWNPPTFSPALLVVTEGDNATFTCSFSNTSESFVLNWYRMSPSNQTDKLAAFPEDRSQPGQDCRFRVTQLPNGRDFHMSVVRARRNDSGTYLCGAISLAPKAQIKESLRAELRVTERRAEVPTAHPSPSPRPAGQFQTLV
T3 sequence (Q9NZQ7 19-290): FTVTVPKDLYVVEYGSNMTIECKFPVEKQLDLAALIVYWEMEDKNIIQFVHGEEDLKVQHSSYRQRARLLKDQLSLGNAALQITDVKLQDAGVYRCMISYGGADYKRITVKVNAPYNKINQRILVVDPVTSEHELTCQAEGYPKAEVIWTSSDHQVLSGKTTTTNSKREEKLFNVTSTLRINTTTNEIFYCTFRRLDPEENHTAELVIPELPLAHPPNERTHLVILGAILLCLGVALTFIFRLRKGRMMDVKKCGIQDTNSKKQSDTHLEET

## B1
[1]
  binding result: no binding
[2]
  binding result: binds
EPHA3 expressed on cells
  binding result: no binding
PD-L1 expressed on cells
  binding result: binds
ICAM5
  binding result: binds
[3]
  binding result: no binding (tested: 250 nM)

## B2
[4]
  binding result: no binding (tested: 250 nM)
[5]
  binding result: no binding (tested: 250 nM)
[6]
  Kd: 84 nM

## B3
[7]
  binding result: no binding

## B4
Mouse CD177
  binding result: no binding
